Source: patent US7312045B2, “Aggrecanase-1 and -2 peptide substrates and methods” (Ortho-McNeil Pharmaceutical, Inc., priority 2002, dated 2007)
Primed or numbered codes have the meaning given here. No end group written: not given here. *: point of attachment. Dabcyl′ = CN(C)c1ccc(/N=N/c2ccc(C(=O)*)cc2)cc1

Assays:
Format in all cases: biochemical
Aggrecanase-1 = biological target: T1, Aggrecanase-1 (Homo sapiens, UniProt O75173); experiment: Drug screening assay, aggrecanase-1 FasL1 FRET peptide cleavage; settings: inhibitor 7.5 micromolar, FasL1 225 μM, 200 minutes at room temperature
T1 construct: made in house; host or cells: Sf9 cells (baculovirus, pFastBac1)
T1 sequence (O75173 213-437): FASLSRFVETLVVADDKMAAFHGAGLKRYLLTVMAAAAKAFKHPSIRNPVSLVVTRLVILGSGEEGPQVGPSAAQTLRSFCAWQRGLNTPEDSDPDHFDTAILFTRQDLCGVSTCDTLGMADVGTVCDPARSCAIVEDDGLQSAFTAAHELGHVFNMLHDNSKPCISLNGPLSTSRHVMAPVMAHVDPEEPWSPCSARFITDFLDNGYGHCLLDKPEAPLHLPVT
Description: Aggrecanase-1 ([…] of protein, 85 to 167 picomoles) was diluted in assay buffer (50 mM HEPES pH 7.5, 10 mM CaCl2, 0.1M NaCl, 0.05% Brij-35). Samples were prepared containing putative inhibitors A (Chen et al. Biorg. Med. Chem. Lett. 6(13):1601-1606, 1996) or B (Bailey, et al. Biorg. Med. Chem. Lett. 9(21):3165-3170, 1999), shown below, at a final concentration of 7.5 micromolar. The final % DMSO in the assay was 3% and it was determined experimentally that this concentration was not detrimental to the activity of the enzyme. The reaction was initiated by the addition of FasL1 peptide substrate to a final concentration of 225 μM and readings were taken at one-minute intervals, for a total of 200 minutes at room temperature.
The assay was always performed at enzyme and substrate concentrations where the activity was linearly related to enzyme concentration and where the increase in fluorescence (reaction rate) was linear for at least the time of the assay. From FIG. 4A, it can be seen that for kinetic analysis, the signal-to-noise ratio is effectively infinite, as no change in the background (blank, no enzyme) is observed over the time of the assay. For endpoint measurements, the enzyme and substrate concentrations could be adjusted to achieve the desired signal-to-noise ratio. […]

aggrecanase-2 [1] = biological target: T2, aggrecanase-2 (Homo sapiens, UniProt Q9UNA0); experiment: IC50 analysis for inhibition of aggrecanase-2, FasL1 FRET peptide cleavage; settings: FasL1 225 μM, 60 minutes at room temperature, inhibitor 0.1 to 12.5 μM
T2 construct: made in house; host or cells: Sf9 cells (baculovirus, pFastBac1)
T2 sequence (Q9UNA0 262-482): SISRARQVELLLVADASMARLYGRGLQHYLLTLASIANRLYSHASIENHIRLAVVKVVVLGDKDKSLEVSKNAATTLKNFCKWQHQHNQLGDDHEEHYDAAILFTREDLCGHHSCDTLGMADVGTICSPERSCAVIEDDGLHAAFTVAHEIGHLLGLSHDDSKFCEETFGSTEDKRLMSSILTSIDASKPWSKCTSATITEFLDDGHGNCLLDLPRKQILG
Description: Aggrecanase-2 (0.5 to 1 μg of protein, 17 to 33 picomoles) was diluted in assay buffer (50 mM HEPES pH 7.5, 10 mM CaCl2, 0.1M NaCl, 0.05% Brij-35). Samples were prepared containing Inhibitor A, B or C (shown above) at final concentrations ranging from 0.1 to 12.5 μM (final DMSO concentration of 1.5%). Duplicate assays were run for each concentration of Inhibitor A, B and C (purchased from Peptides International, TAPI-0, Cat. No. INH 3850-P1) for 60 minutes at room temperature. The reaction was initiated by the addition of FasL1 peptide substrate to a final concentration of 225 μM. The reaction rates over 60 minutes at room temperature, in the absence (control) and presence of various concentrations of the inhibitor, were determined by linear regression of the data points. The reaction rate data in FIG. 4B were fitted by non-linear regression using the program Grafit (Erithacus Software).

truncated aggrecanase-2 = biological target: T3, truncated aggrecanase-2 (Homo sapiens, UniProt Q9UNA0); experiment: FRET peptide substrate screening, truncated aggrecanase-2; settings: peptide 50 uM, 60 minutes at room temperature
T3 construct: made in house; host or cells: Sf9 cells (baculovirus, pFastBac1)
T3 sequence (Q9UNA0 262-482): T2 sequence (Q9UNA0 262-482)
Description: (§1) Fifty-six different peptides were synthesized to test for protease activity (see Table 3 below). The peptides included a collection of substrates for other proteases, as well as a number of sequences corresponding to membrane proximal cleavage sites of various proteins postulated to be released by metalloproteases (including those published by (Roghani et al., J. Biol. Chem. 274:3531-340, 1999) for ADAM9/MDC9). In order to use the principle of fluorescence resonance energy transfer, or FRET, the peptides were labeled at the C-terminus with Dabcyl and at the N-terminus with Aedans (or vice versa). Thus cleavage of the peptides was monitored by the increase in Aedans fluorescence at 460 nm (excitation 360 nm) as a result of the decrease in proximity of the Dabcyl quencher. The assay was performed by diluting the truncated aggrecanase-1 (approximately 2.5 to 5 μg of protein, 85 to 167 picomoles, SEQ ID NO:8) or truncated aggrecanase-2 (approximately 0.5 to 1 μg of protein, 17 to 33 picomoles, SEQ ID NO:9), in assay buffer (50 mM HEPES pH 7.5, 10 mM CaCl2, 0.1M NaCl and 0.05% (w/v) Brij-35 detergent (Sigma).
(§2) The reaction was initiated by the addition of peptide substrate to a final concentration of 100 uM for truncated aggrecanase-1 and 50 uM for truncated aggrecanase-2. The assays were typically run for 60 minutes at room temperature and the slope of the kinetic increase in fluorescence was determined to calculate the rate of the reaction.
FIG. 2 illustrates the relative activities for the 56 different peptides, A1 to H7 (only every alternate peptide is numbered in FIG. 2) expressed in arbitrary, but relative units. […] Peptide D7 (16 amino acids) corresponds to the sequence within aggrecan containing the Glu373-Ala374 aggrecanase cleavage site.

aggrecanase-2 [2] = biological target: T2, aggrecanase-2; experiment: Kinetic analysis of aggrecanase-2 peptide cleavage (Km, Vm); settings: aggrecanase-2, 60 minutes at room temperature, non-linear fitting; for Vm: rfu = relative fluorescence units
Description: To confirm the screening assay, aggrecanase-2 was further analyzed for its rate of catalysis using 2 different peptides. The assay was performed by diluting the aggrecanase-2 in assay buffer (50 mM HEPES pH 7.5, 10 mM CaCl2, 0.1M NaCl and 0.05% Brij-35). […] The assay was run for 60 minutes at room temperature. FIG. 3 illustrates the proteolytic activity (in relative fluorescence units per minute) as a function of peptide concentration for peptides FasL1 and 29CD23. The curves were fitted to the data with the program Grafit (Erithacus Software Lmited). The Vmax and Km for each substrate were calculated by non-linear fitting of the data. The cleavage site for aggrecanase-2 within each peptide was determined by LC-MS analysis to be between a glutamic acid and leucine residues in each case, as indicated in Table 2 by a carot within each peptide sequence. […] However, these are clearly not the only requirements for efficient cleavage, as a number of the 56 peptides tested have similar residues and were not cleaved by the aggrecanases.

truncated aggrecanase-1 = biological target: T4, truncated aggrecanase-1 (Homo sapiens, UniProt O75173); experiment: FRET peptide substrate screening, truncated aggrecanase-1; settings: peptide 100 uM, 60 minutes at room temperature
T4 construct: made in house; host or cells: Sf9 cells (baculovirus, pFastBac1)
T4 sequence (O75173 213-437): T1 sequence (O75173 213-437)
Description: as §1, with “The assay was performed by diluting the truncated aggrecanase-1 (approximately 2.5 to 5 μg of protein, 85 to 167 picomoles, SEQ ID NO:8) or truncated aggrecanase-2 (approximately 0.5 to 1 μg of protein, 17 to 33 picomoles, SEQ ID NO:9), in assay buffer (50 mM HEPES pH 7.5, 10 mM CaCl2, 0.1M NaCl and 0.05% (w/v) Brij-35 detergent (Sigma).” left out
as §2, with “reaction. […]” for “reaction.”

MMP7 = biological target: T5, MMP7 (Homo sapiens, UniProt P09237); experiment: Similar peptide substrate screening assay with MMP7; settings: similar screening assays
T5 construct: purchased Chemicon CC1059
T5 sequence (P09237 95-267): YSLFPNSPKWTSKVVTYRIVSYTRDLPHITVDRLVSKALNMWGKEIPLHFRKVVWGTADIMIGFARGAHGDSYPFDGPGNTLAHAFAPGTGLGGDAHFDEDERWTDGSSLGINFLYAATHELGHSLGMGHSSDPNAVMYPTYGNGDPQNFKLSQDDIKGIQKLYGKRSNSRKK

MMP13 = biological target: T6, MMP13 (Homo sapiens, UniProt P45452); experiment: Similar peptide substrate screening assay with MMP13; settings: similar screening assays
T6 construct: purchased Chemicon CC068

Compound	inhibition of aggrecanase-1 enzyme activity (FIG. 4A) (Aggrecanase-1)	IC50 (aggrecanase-2 [1])	relative activity of truncated aggrecanase-2 for the peptide (FIG. 2) (truncated aggrecanase-2)	Km (aggrecanase-2 [2])	Vm (aggrecanase-2 [2])	relative activity of truncated aggrecanase-1 for the peptide (FIG. 2) (truncated aggrecanase-1)	other results
CC(C)C[C@@H](CC(=O)NO)C(=O)N[C@@H](CC(C)C)c1ncc(-c2ccccc2)[nH]1 [Inhibitor A]	completely inhibited	118 ± 5 nM					
CC(C)(C)C(NC(=O)C(Cc1ccc2ccccc2c1)[C@H](O)C(=O)NO)C(N)=O (stereo partly shown) [Inhibitor B]	completely inhibited	38 ± 8 nM					
CC(C)C[C@@H](CC(=O)NO)C(=O)N[C@@H](Cc1ccc2ccccc2c1)C(=O)N[C@@H](C)C(N)=O [Inhibitor C, TAPI-0]		102 ± 23 nM					
(Aedans)EADLSSFKSQEL(Dabcyl)K-amide (EADLSSFKSQELK(Dabcyl′)-NH2; not fully specified (residue 1, N-terminus); printed as (Aedans)EADLSSFKSQEL(Dabcyl)K-amide; also: Aedans label on N-terminal Glu (N-terminus or side chain not given here)) [Peptide 29CD23]			high activity	40 µM	0.6 rfu/min		
(Aedans)EKELAELRESTS(Dabcyl)K-amide (EKELAELRESTSK(Dabcyl′)-NH2; not fully specified (residue 1, N-terminus); printed as (Aedans)EKELAELRESTS(Dabcyl)K-amide; also: Aedans label on N-terminal Glu (N-terminus or side chain not given here)) [FasL1]			highest activity	80 µM	2.8 rfu/min	highest activity	suitability as substrate for MMP7 (MMP7): suitable substrate; suitability as substrate for MMP13 (MMP13): suitable substrate
(Aedans)ERNITEGEARGSVIL(Dabcyl)K-amide (ERNITEGEARGSVILK(Dabcyl′)-NH2; not fully specified (residue 1, N-terminus); printed as (Aedans)ERNITEGEARGSVIL(Dabcyl)K-amide; also: Aedans label on N-terminal Glu (N-terminus or side chain not given here)) [Peptide D7]			Neither truncated aggrecanase-1 nor truncated aggrecanase-2 showed any activity			Neither truncated aggrecanase-1 nor truncated aggrecanase-2 showed any activity	
